This passage reports activity results from patent US20140186823.

Data set [1] addresses MspA NNN-RRK pore MS-(B1)8 (Mycobacterium smegmatis) (UniProt A0QR29). Particulars: four 5' 2'-O-methyl-uracil on SEQ 19; 3' Cholesteryl-TEG on SEQ 20; mean S.D. of current levels; helicase translocation, +140 mV; unit assumed.
The target in data set [2] is MS-(B1-L88N)8 L88N (Mycobacterium smegmatis) (UniProt A0QR29). To be noted: four 5' 2'-O-methyl-uracil on SEQ 19; 3' Cholesteryl-TEG on SEQ 20; mean S.D. of current levels; helicase translocation, +140 mV; unit assumed.

Take “NNNNTTTTTTTTTTTTTTTTTTTTTTTTTTTTTTTTTTTTTTTTTTTTTTTTTTGGTTGTTTCTGTTGGTGCTGATATTGCTTTTGATGCCGACCCTAAATTTTTTGCCTGTTTGGTTCGCTTTGAGTCTTCTTCGGTTCCGACTACCCTCCCGACTGCCTATGATGTTTATCCTTTGAATGGTCGCCATGATGGTGGTTATTATACCGTCAAGGACTGTGTGACTATTGACGTCCTTCCCCGTACGCCGGGCAATAACGTTTATGTTGGTTTCATGGTTTGGTCTAACTTTACCGCTACTAAATGCCGCGGATTGGTTTCGCTGAATCAGGTTATTAAAGAGATTATTTGTCTCCAGCCACTTAAGTGAGGTGATTTATGTTTGGTGCTATTGCTGGCGGTATTGCTTCTGCTCTTGCTGGTGGCGCCATGTCTAAATTGTTTGGAGGCGGTC / GCAATATCAGCACCAACAGAAACAACCTTTTTTTTTTTTTTTTTTTTTTTTTTTTTT”: the values for the activity in data set [1] and in data set [2] were 2.3 pA and 1.79 pA, respectively.
